# Data reported in US20060281673A1, “Novel peptide inhibitor of hiv fusion that disrupts the internal trimeric coiled-coil of gp41” (priority 2003, published 2006).
# Biological target: pre-hairpin intermediate of gp41 (HIV-1 Env on effector cells) (HIV-1) (UniProt P03377)
# Experiment: cell-based or functional assay
substance,measurement,value
N36 peptide,"IC50, inhibition of HIV Env-mediated cell fusion (vaccinia virus-based reporter gene assay)",16 µM
